Results reported in patent US11278600B2, “Human alpha-galactosidase variants” (Codexis, Inc., priority 2014, dated 2022).
Positions count from the first letter of the chain named.

B1: 530 (protein)
chain: LDNGLARTPTMGWLHWERFMCNLDCQEEPDSCISEKLFMEMAERMVSEGWKDAGYEYLCIDDCWMAPQRDSEGRLQADPQRFPHGIRQLANHVHSKGLKLGIYADVGNKTCAGFPGSFGYYDIDAQTFADWGVDLLKFDGCYCDSLENLADGYKHMSLALNRTGRSIVYSCEWPLYMWPFQEPNYTEIRQYCNHWRNFADIDDSWASIKSILDWTSRNQERIVDVAGPGGWNDPDMLVIGNFGLSWDQQVTQMALWAIMAAPLFMSNDLRHISPQAKALLQDKDVIAINQDPLGKQGYQLRKGDNFEVWERPLSGDAWAVAIINRQEIGGPRSYTIPVASLGKGVACNPACFITQLLPVKRQLGFYNWTSRLKSHINPTGTVLLQLENTMQMSLKDLL
modifications: Synthetic Polypeptide sequence of Variant No. 530 of mature Human GLA
B2: 516 (protein)
chain: B1 chain with D2E, E182K, Q326G
modifications: Synthetic Polypeptide sequence of Variant No. 516 of mature Human GLA
B3: 541 (protein)
chain: B1 chain with E182K, D282A
modifications: Synthetic Polypeptide sequence of Variant No. 541 of mature Human GLA
B4: 540 (protein)
chain: B1 chain with E182K, A287M
modifications: Synthetic Polypeptide sequence of Variant No. 540 of mature Human GLA
B5: 537 (protein)
chain: B1 chain with E182Y
modifications: Synthetic Polypeptide sequence of Variant No. 537 of mature Human GLA
B6: 539 (protein)
chain: B1 chain with E182K, A287H
modifications: Synthetic Polypeptide sequence of Variant No. 539 of mature Human GLA
B7: 531 (protein)
chain: B1 chain with E182H
modifications: Synthetic Polypeptide sequence of Variant No. 531 of mature Human GLA
B8: 543 (protein)
chain: B1 chain with E182K, D282M
modifications: Synthetic Polypeptide sequence of Variant No. 543 of mature Human GLA
B9: 542 (protein)
chain: B1 chain with E182K, D282G
modifications: Synthetic Polypeptide sequence of Variant No. 542 of mature Human GLA
B10: 533 (protein)
chain: B1 chain with E182Q
modifications: Synthetic Polypeptide sequence of Variant No. 533 of mature Human GLA
B11: 544 (protein)
chain: B1 chain with E182K, D282V
modifications: Synthetic Polypeptide sequence of Variant No. 544 of mature Human GLA
B12: 538 (protein)
chain: B1 chain with E182K, A287C
modifications: Synthetic Polypeptide sequence of Variant No. 538 of mature Human GLA
B13: 534 (protein)
chain: B1 chain with E182R
modifications: Synthetic Polypeptide sequence of Variant No. 534 of mature Human GLA
B14: 536 (protein)
chain: B1 chain with E182V
modifications: Synthetic Polypeptide sequence of Variant No. 536 of mature Human GLA
B15: 532 (protein)
chain: B1 chain with E182M
modifications: Synthetic Polypeptide sequence of Variant No. 532 of mature Human GLA
B16: 535 (protein)
chain: B1 chain with E182T
modifications: Synthetic Polypeptide sequence of Variant No. 535 of mature Human GLA

Assay: HTP-analysis of yeast culture supernatants, no challenge (MUGal hydrolysis)
Assay type: biochemical
Conditions: activity of the variant/activity of Rd3BB (SEQ ID NO: 13)
In short: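 GLA variants expressed in yeast INVSc1, secreted into SD-Ura broth over 66-84 h at 30° C; clarified supernatants tested without challenge. Supernatant mixed with McIlvaine buffer pH 4.8 and 2 mM MUGal (citrate/KCl, pH 4.6), 37° C for 30-180 min, carbonate-quenched, fluorescence Ex 355/Em 448 nm.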

Row | Molecule | Relative Activity of GLA Variants After No Challenge (NC)
1 | B1 | + (+ = 1.5 to 5 relative activity over Rd3BB (SEQ ID NO: 13))
2 | B2 | + (+ = 1.5 to 5 relative activity over Rd3BB (SEQ ID NO: 13))
3 | B3 | + (+ = 1.5 to 5 relative activity over Rd3BB (SEQ ID NO: 13))
4 | B4 | + (+ = 1.5 to 5 relative activity over Rd3BB (SEQ ID NO: 13))
5 | B5 | + (+ = 1.5 to 5 relative activity over Rd3BB (SEQ ID NO: 13))
6 | B6 | + (+ = 1.5 to 5 relative activity over Rd3BB (SEQ ID NO: 13))
7 | B7 | + (+ = 1.5 to 5 relative activity over Rd3BB (SEQ ID NO: 13))
8 | B8 | + (+ = 1.5 to 5 relative activity over Rd3BB (SEQ ID NO: 13))
9 | B9 | + (+ = 1.5 to 5 relative activity over Rd3BB (SEQ ID NO: 13))
10 | B10 | + (+ = 1.5 to 5 relative activity over Rd3BB (SEQ ID NO: 13))
11 | B11 | + (+ = 1.5 to 5 relative activity over Rd3BB (SEQ ID NO: 13))
12 | B12 | + (+ = 1.5 to 5 relative activity over Rd3BB (SEQ ID NO: 13))
13 | B13 | + (+ = 1.5 to 5 relative activity over Rd3BB (SEQ ID NO: 13))
14 | B14 | + (+ = 1.5 to 5 relative activity over Rd3BB (SEQ ID NO: 13))
15 | B15 | + (+ = 1.5 to 5 relative activity over Rd3BB (SEQ ID NO: 13))
16 | B16 | + (+ = 1.5 to 5 relative activity over Rd3BB (SEQ ID NO: 13))

Assay: HTP-analysis of supernatants pretreated with acid (MUGal hydrolysis)
Assay type: biochemical
Conditions: activity of the variant/activity of Rd3BB (SEQ ID NO: 13); challenge at pH 3.7
In short: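 Supernatants from INVSc1 yeast secreting GLA variants were challenged at 37° C. for 1-3 h in McIlvaine buffer at pH 3.3-4.3. Residual activity was then measured on 4 mM MUGal substrate stock at pH 4.8 with citrate buffer pH 4.3, over 30-180 min at 37° C. Reactions were quenched with sodium carbonate and read by fluorescence (Ex 355/Em 448 nm).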

Row | Molecule | Relative Activity of GLA Variants After Challenge at pH 3.7
17 | B1 | + (+ = 1.5 to 5 relative activity over Rd3BB (SEQ ID NO: 13))
18 | B2 | +++ (+++ = >10 relative activity over Rd3BB (SEQ ID NO: 13))
19 | B3 | + (+ = 1.5 to 5 relative activity over Rd3BB (SEQ ID NO: 13))
20 | B4 | + (+ = 1.5 to 5 relative activity over Rd3BB (SEQ ID NO: 13))
21 | B5 | + (+ = 1.5 to 5 relative activity over Rd3BB (SEQ ID NO: 13))
22 | B6 | + (+ = 1.5 to 5 relative activity over Rd3BB (SEQ ID NO: 13))
23 | B7 | + (+ = 1.5 to 5 relative activity over Rd3BB (SEQ ID NO: 13))
24 | B8 | + (+ = 1.5 to 5 relative activity over Rd3BB (SEQ ID NO: 13))
25 | B9 | + (+ = 1.5 to 5 relative activity over Rd3BB (SEQ ID NO: 13))
26 | B10 | + (+ = 1.5 to 5 relative activity over Rd3BB (SEQ ID NO: 13))
27 | B11 | + (+ = 1.5 to 5 relative activity over Rd3BB (SEQ ID NO: 13))
28 | B12 | + (+ = 1.5 to 5 relative activity over Rd3BB (SEQ ID NO: 13))
29 | B13 | + (+ = 1.5 to 5 relative activity over Rd3BB (SEQ ID NO: 13))
30 | B14 | + (+ = 1.5 to 5 relative activity over Rd3BB (SEQ ID NO: 13))
31 | B15 | + (+ = 1.5 to 5 relative activity over Rd3BB (SEQ ID NO: 13))
32 | B16 | + (+ = 1.5 to 5 relative activity over Rd3BB (SEQ ID NO: 13))

Assay: HTP-analysis of supernatants pretreated with base (MUGal hydrolysis)
Assay type: biochemical
Conditions: activity of the variant/activity of Rd3BB (SEQ ID NO: 13); challenge at pH 9.7
In short: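 GLA variants were secreted by transformed INVSc1 yeast grown 66-84 h at 30° C. Supernatants were exposed to neutral-to-basic buffers (pH 7.0-9.7) at 37° C for 1-18 h, then assayed with MUGal in acidic citrate/McIlvaine buffer, with fluorescence read after quenching.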

Row | Molecule | Relative Activity of GLA Variants After Challenge at pH 9.7
33 | B1 | ++ (++ = >5 to 10 relative activity over Rd3BB (SEQ ID NO: 13))
34 | B2 | + (+ = 1.5 to 5 relative activity over Rd3BB (SEQ ID NO: 13))
35 | B3 | ++ (++ = >5 to 10 relative activity over Rd3BB (SEQ ID NO: 13))
36 | B4 | ++ (++ = >5 to 10 relative activity over Rd3BB (SEQ ID NO: 13))
37 | B5 | ++ (++ = >5 to 10 relative activity over Rd3BB (SEQ ID NO: 13))
38 | B6 | ++ (++ = >5 to 10 relative activity over Rd3BB (SEQ ID NO: 13))
39 | B7 | ++ (++ = >5 to 10 relative activity over Rd3BB (SEQ ID NO: 13))
40 | B8 | + (+ = 1.5 to 5 relative activity over Rd3BB (SEQ ID NO: 13))
41 | B9 | ++ (++ = >5 to 10 relative activity over Rd3BB (SEQ ID NO: 13))
42 | B10 | ++ (++ = >5 to 10 relative activity over Rd3BB (SEQ ID NO: 13))
43 | B11 | + (+ = 1.5 to 5 relative activity over Rd3BB (SEQ ID NO: 13))
44 | B12 | + (+ = 1.5 to 5 relative activity over Rd3BB (SEQ ID NO: 13))
45 | B13 | ++ (++ = >5 to 10 relative activity over Rd3BB (SEQ ID NO: 13))
46 | B14 | ++ (++ = >5 to 10 relative activity over Rd3BB (SEQ ID NO: 13))
47 | B15 | ++ (++ = >5 to 10 relative activity over Rd3BB (SEQ ID NO: 13))
48 | B16 | ++ (++ = >5 to 10 relative activity over Rd3BB (SEQ ID NO: 13))
